Results: paper PMC12747287, “Human O-GlcNAcase catalytic-stalk dimer anchors flexible histone binding domains” (Research Square, 2025)

Target: T1, full length human O-GlcNAcase, long isoform (OGA-L) (human, UniProt O60502 1-916)
T1 construct: human O-GlcNAcase, long isoform (OGA-L), 103 kDa, full length; Dimer in the cryo-EM structure; The methods name an anti-c-Myc antibody beside the anti-His6 antibody; the 'C-term' tag may be c-Myc; also called hOGA; full-length OGA; source: E. coli TOP10 (pBAD/HisA, codon optimized), purified (Talon resin for the arrays; HisTrap and size-exclusion chromatography for cryo-EM); not shown: His6, …
T1 sequence (looked up): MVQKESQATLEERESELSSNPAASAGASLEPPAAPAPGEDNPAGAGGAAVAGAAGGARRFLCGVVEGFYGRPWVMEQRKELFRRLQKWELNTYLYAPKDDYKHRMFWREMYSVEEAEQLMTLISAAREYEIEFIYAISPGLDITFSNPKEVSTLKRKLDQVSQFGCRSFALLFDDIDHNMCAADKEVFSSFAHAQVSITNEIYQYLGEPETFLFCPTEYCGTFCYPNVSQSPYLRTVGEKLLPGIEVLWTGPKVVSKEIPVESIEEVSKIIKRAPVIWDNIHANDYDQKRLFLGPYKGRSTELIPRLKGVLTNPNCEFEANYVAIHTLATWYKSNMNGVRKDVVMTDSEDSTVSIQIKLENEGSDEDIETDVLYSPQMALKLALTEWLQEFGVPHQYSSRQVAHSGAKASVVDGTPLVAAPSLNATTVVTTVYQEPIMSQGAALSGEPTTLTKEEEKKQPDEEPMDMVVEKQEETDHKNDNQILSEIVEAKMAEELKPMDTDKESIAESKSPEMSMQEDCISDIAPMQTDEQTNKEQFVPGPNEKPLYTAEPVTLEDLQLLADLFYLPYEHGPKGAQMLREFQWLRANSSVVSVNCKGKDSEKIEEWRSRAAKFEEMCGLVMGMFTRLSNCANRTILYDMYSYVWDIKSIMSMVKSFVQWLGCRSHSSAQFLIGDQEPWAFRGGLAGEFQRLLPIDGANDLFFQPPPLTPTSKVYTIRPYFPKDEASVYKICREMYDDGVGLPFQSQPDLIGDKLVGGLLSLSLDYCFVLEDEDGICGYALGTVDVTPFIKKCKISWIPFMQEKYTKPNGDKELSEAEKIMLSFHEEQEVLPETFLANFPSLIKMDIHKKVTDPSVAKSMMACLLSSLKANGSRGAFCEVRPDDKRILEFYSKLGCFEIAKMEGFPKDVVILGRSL
Experiment: peptide or protein array; Active Motif MODified Histone Peptide Array (384 modified histone peptides in duplicate, on the array); 100 nM protein in 20 mM Tris pH 7.5, 1 mM DTT, 0.5 mg/mL BSA, RT 1 hour; detected by anti-His6 antibody (also C-term tag antibody) and IR-800 secondary antibody
Conditions: both partners purified

B1: histone H4 1-19 peptide, K5,8,12,16Ac (peptide, UniProt P62805 2-20, looked up)
peptide: SGRGKGGKGLGKGGAKRHR
modifications: acetyl-lysine at K5, K8, K12 and K16
notes: histone H4 tail peptide, residues 1-19; also called H4 1-19 K5,8,12,16Ac; H4K^5,8,12,16Ac; source: bought: Active Motif MODified Histone Peptide Array (peptide on the array)
binding result: binds
